The values below come from US20250368738A1 (PHILOGEN S P A, published 2025).

Experiment [1] addresses T1, murine CD28 on the surface of primary mouse T cells (mouse, UniProt P31041 20-218).
T1 construct: whole, on cells
Nature of the experiment: flow cytometry on primary mouse T cells, 50 nM antibody. On the technique in general: Flow cytometry measures light scatter and fluorescence of single cells or particles in a stream.

Experiment [2] has as its target T1, murine CD28 on the surface of primary …. Nature of the experiment: flow cytometry on primary mouse T cells.
Method: Cells were first blocked for 30 minutes in FACS buffer (PBS, 2% FBS and 2 mM EDTA). […] Zombie NIR was used to discriminate live from dead cells.
In experiment [3] the target is T2, murine CD28 Fc (mouse, UniProt P31041 20-150).
T2 construct: also called murine CD28 ECD; mouse CD28 Fc; not shown: His6 tag and Fc part of the murine construct
Nature of the experiment: titration ELISA, His6-tagged CD28-ECD on NiNTA plates, FITC-conjugated antibody. For orientation: An ELISA detects its analyte on a solid surface through an enzyme-linked reagent.

Experiment [4] addresses T3, human CTLA-4 protein containing His6 Tag (SinoBiological, Cat: 11159-H08H) (human, UniProt P16410 36-162).
T3 construct: Bought protein
Nature of the experiment: titration ELISA, His6-tagged human CTLA-4 on NiNTA plates, FITC-conjugated antibody.

In experiment [5] the target is T4, human CD28-ECD (extracellular domain) recombinant fragment containing a C-terminal Avi tag, His6 tag and Fc … (human, site specifically biotinylated using BirA (Avi tag) in the ELISA of Example 2.1).
T4 construct: also called CD28-Fc; CD28-Fc fusion protein
Nature of the experiment: titration ELISA.

Experiment [6] has as its target T5, human CD28 expressed on primary human T cells (human, UniProt P10747 19-220).
T5 construct: whole, on cells; also called primary human T cells expressing CD28
Nature of the experiment: flow cytometry on primary human T cells, 50 nM antibody.
Method: Cells were first blocked for 30 minutes in FACS buffer (PBS, 2% FBS and 2 mM EDTA). […] Zombie near infrared (NIR) was used to discriminate live from dead cells.

T4 sequence (chain, as listed by the source limits assumed): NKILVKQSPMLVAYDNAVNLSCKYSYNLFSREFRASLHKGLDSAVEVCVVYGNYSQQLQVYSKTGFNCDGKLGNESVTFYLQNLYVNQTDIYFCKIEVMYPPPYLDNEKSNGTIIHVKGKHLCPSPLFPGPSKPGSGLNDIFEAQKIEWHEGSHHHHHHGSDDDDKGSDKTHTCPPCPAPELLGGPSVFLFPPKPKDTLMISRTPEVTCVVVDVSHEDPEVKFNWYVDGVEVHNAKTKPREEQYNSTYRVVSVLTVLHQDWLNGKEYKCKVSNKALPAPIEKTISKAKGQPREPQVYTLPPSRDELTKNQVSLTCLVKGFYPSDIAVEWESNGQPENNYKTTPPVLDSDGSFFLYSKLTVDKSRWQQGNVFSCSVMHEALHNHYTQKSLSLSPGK

B1: anti-human CEA IgG/AE2P (scFv)2 bispecific antibody in IgG-(scFv)2 (2+2) format (format 1, FIG. 13) (bispecific antibody)
heavy: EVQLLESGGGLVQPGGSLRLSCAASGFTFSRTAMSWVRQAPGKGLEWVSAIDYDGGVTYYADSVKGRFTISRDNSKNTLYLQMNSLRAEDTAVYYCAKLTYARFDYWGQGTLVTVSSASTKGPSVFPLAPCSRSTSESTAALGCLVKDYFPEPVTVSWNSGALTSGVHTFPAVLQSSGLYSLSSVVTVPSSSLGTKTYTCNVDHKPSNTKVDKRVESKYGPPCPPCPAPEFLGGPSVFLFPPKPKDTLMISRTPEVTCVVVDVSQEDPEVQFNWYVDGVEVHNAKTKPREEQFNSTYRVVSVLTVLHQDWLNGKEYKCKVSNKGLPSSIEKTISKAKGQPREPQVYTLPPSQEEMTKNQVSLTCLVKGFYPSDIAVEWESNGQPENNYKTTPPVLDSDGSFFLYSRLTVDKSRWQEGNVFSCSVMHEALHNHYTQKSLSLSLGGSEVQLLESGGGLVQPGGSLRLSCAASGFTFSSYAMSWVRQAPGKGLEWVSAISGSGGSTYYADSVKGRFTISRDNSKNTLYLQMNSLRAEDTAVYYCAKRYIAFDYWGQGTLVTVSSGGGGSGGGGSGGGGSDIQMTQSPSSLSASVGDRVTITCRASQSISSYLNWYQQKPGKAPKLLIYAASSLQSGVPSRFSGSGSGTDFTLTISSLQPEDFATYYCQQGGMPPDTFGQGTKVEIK
light: EIVLTQSPGTLSLSPGERATLSCRASQSVSQNHLAWYQQKPGQAPRLLIYLASRRHTGIPDRFSGSGSGTDFTLTISRLEPEDFAVYYCQQSGRVPWTFGQGTKVEIKRTVAAPSVFIFPPSDEQLKSGTASVVCLLNNFYPREAKVQWKVDNALQSGNSQESVTEQDSKDSTYSLSSTLTLSKADYEKHKVYACEVTHQGLSSPVTKSFNRGEC
notes: also called anti-human CEA IgG/anti-CD28 (scFv)2 bispecific antibody
Consider B1, for which the binding result in experiment [1] is recorded as “binds”.

B2: TGN1412 IgG4 (antibody, V domains shown)
VH: QVQLVQSGAEVKKPGASVKVSCKASGYTFTSYYIHWVRQAPGQGLEWIGCIYPGNVNTNYNEKFKDRATLTVDTSISTAYMELSRLRSDDTAVYFCTRSHYGLDWNFDVWGQGTTVTVSS
VL: not shown
notes: U.S. Pat. No. 8,709,414'; also called TGN1412 antibody in IgG4 format
Turning to B2, the binding result in experiment [2] is recorded as “no binding (tested: 50 nM)”; in experiment [3], “no binding”; in experiment [4], “no binding”.

B3: AE2P antibody in IgG4 format (antibody, V domains shown)
VH: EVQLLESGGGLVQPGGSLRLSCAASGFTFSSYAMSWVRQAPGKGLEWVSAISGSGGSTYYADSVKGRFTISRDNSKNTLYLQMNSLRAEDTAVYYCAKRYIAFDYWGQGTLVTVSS
VL: DIQMTQSPSSLSASVGDRVTITCRASQSISSYLNWYQQKPGKAPKLLIYAASSLQSGVPSRFSGSGSGTDFTLTISSLQPEDFATYYCQQGGMPPDTFGQGTKVEIKR
notes: unconjugated in flow cytometry; also called AE2P IgG4; IgG4 (AE2P)
B3: the binding result in experiment [3], in experiment [5], in experiment [1], in experiment [6] and in experiment [4] was “binds” throughout.
